Reference: patent US20240247080A1, “GLP1/GIP/NPY2 RECEPTOR TRIPLE AGONISTS” (Boehringer Ingelheim International GmbH, priority 2022, published 2024)
Starred links: 1 amine or outer side, 2 acyl side, 3 side chain; linkers in the order of their positions; H or OH if unused. Non-standard residues stand in square brackets, D forms with d. Groups on a side chain read outwards from the residue. No end group written: not given here. *: point of attachment. C20 diacid = O=C(O)CCCCCCCCCCCCCCCCCCC(=O)*; C18 diacid = O=C(O)CCCCCCCCCCCCCCCCC(=O)*; γGlu = O=C(O)[C@H](CCC(=O)[*:2])N[*:1]; εLys = N[C@@H](CCCCN[*:1])C(=O)[*:2]; glu = not defined here; AEEA = NCCOCCOCC(=O)O; Aib = CC(C)(N)C(=O)O

T1: GIP receptor (human (printed as hGIPR), UniProt P48546 22-466)
T1 sequence (looked up): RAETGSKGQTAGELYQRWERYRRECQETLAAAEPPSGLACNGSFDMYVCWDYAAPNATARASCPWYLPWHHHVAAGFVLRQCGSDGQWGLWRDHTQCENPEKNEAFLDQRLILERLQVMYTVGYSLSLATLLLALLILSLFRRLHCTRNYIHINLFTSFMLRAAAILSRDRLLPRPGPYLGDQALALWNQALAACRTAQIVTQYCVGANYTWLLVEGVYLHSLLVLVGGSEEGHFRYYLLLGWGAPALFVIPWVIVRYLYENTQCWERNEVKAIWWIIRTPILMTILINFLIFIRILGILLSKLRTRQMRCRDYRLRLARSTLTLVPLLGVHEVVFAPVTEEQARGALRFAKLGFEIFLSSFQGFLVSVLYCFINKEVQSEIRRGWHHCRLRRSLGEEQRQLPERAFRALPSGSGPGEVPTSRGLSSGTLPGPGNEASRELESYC

T2: NPY2 receptor (human (printed as hNPY2R), UniProt P49146 1-381)
T2 sequence (looked up): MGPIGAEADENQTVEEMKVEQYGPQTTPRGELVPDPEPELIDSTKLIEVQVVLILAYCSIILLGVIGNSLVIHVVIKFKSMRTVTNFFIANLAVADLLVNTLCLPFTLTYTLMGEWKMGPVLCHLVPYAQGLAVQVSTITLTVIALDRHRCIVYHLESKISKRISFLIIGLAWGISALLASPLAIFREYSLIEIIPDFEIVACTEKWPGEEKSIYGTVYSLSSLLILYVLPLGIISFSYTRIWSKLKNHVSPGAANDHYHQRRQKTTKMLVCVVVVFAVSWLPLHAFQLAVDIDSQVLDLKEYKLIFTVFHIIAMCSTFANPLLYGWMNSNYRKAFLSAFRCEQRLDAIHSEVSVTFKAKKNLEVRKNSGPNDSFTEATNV

B1: Compound 199 (peptide)
peptide: Y[Aib]EGTFTSDYSI[Aib]LE[Aib]QAQ[Aib]AFVEWLIKGGPSSGASLRHYYNWLTRQRY-NH2
modifications: not fully specified (residue 28); also: TFA salt
B2: Compound 203 (peptide)
peptide: Y[Aib]EGTFTSDYSI[Aib]LEKQAQ[Aib]AFVEWLIKGGPSYYASLRHYYNWLTRQRY-NH2
modifications: not fully specified (residue 28); also: TFA salt
B3: Compound 202 (peptide)
peptide: Y[Aib]EGTFTSDYSI[Aib]LEKQAQ[Aib]EFVQWLIK([γGlu-γGlu-γGlu-γGlu-C18 diacid])GGPSEGASLRHYYNWLTRQRY-NH2
modifications: also: TFA salt
B4: Compound 193 (peptide)
peptide: Y[Aib]EGTFTSDYSI[Aib]LEKQAQ[Aib]AFVQWLIK([AEEA-AEEA-γGlu-γGlu-γGlu-γGlu-C20 diacid])GGPEEGASLRHYYNWLTRQRY-NH2
modifications: also: TFA salt
B5: Compound 192 (peptide)
peptide: Y[Aib]EGTFTSDYSI[Aib]LEK(Ac)QAQ[Aib]AFVEWLIK([εLys-glu-γGlu-γGlu-γGlu-γGlu-γGlu-C20 diacid])GGPSSGASLRHYYNWLTRQRY-NH2
modifications: reading uncertain; also: TFA salt
B6: Compound 201 (peptide)
peptide: Y[Aib]EGTFTSDYSI[Aib]LEKQAQ[Aib]EFVEWLIKGGPSSGASLRHYYNWLTRQRY-NH2
modifications: not fully specified (residue 28); also: TFA salt
B7: Compound 200 (peptide)
peptide: Y[Aib]EGTFTSDYSI[Aib]LEKQAE[Aib]AFVQWLIK([εLys-γGlu-γGlu-γGlu-γGlu-γGlu-C20 diacid])GGPSEGASLRHYYNWLTRQRY-NH2
modifications: also: TFA salt
B8: Compound 205 (peptide)
peptide: Y[Aib]EGTFTSDYSI[Aib]LEKQAQ[Aib]EFVEWLIK([AEEA-AEEA-γGlu-γGlu-γGlu-γGlu-C20 diacid])GGPSSGASLRHYYNWLTRQRY-NH2
modifications: also: TFA salt
B9: Compound 207 (peptide)
peptide: Y[Aib]EGTFTSDYSI[Aib]LEKQAQ[Aib]EFVQWLIKGGPSEGASLRHYYNWLTRQRY-NH2
modifications: not fully specified (residue 28); also: TFA salt
B10: Compound 194 (peptide)
peptide: Y[Aib]EGTFTSDYSI[Aib]LEKQAQ[Aib]EFVQWLIK([γGlu-γGlu-γGlu-γGlu-C20 diacid])GGPSEGASLRHYYNWLTRQRY-NH2
modifications: also: TFA salt

The binders below were run against GLP-1 receptor (human (printed as hGLP1R), UniProt P43220 24-463) (assay: cell-based or functional assay).

| EC50 hGLP1R 0.5% hP (CreLuc) | EC50 hGLP1R 100% hP (CreLuc) | Binder |
| --- | --- | --- |
| 1.26 nM | 13.8 nM | B1 |
| 0.33 nM | 27 nM | B2 |
| 0.21 nM | 10.4 nM | B3 |
| 0.36 nM | 20.8 nM | B4 |
| 0.13 nM | 2.01 nM | B5 |
| 0.28 nM | 10.4 nM | B6 |
| 0.48 nM | 25.8 nM | B7 |
| 0.44 nM | 12.3 nM | B8 |
| 0.36 nM | 12.7 nM | B9 |
| 0.29 nM | 14.2 nM | B10 |

These binders were tested against T1, GIP receptor (assay: cell-based or functional assay).

| EC50 hGIPR 0.5% hP (CreLuc) | EC50 hGIPR 100% hP (CreLuc) | Binder |
| --- | --- | --- |
| 0.94 nM | 5.5 nM | B1 |
| 0.5 nM | 12.4 nM | B2 |
| 0.26 nM | 1.81 nM | B3 |
| 0.5 nM | 3.4 nM | B4 |
| 0.28 nM | 1.95 nM | B5 |
| 0.49 nM | 1.03 nM | B6 |
| 0.37 nM | 3.56 nM | B7 |
| 0.33 nM | 1.87 nM | B8 |
| 0.63 nM | 1.66 nM | B9 |
| 0.2 nM | 1.83 nM | B10 |

Each binder was assayed against T2, NPY2 receptor (assay: cell-based or functional assay).

| EC50 hNPY2R 0.5% hP (CreLuc) | EC50 hNPY2R 100% hP (CreLuc) | Binder |
| --- | --- | --- |
| 30 nM | 106 nM | B1 |
| 9.07 nM | 54.1 nM | B2 |
| 12.9 nM | 64.5 nM | B3 |
| 13.6 nM | 73.3 nM | B4 |
| 20.5 nM | 128 nM | B5 |
| 16.3 nM | 31 nM | B6 |
| 12.1 nM | 64.3 nM | B7 |
| 10.6 nM | 37.7 nM | B8 |
| 11 nM | 50.3 nM | B9 |
| 13.8 nM | 93.7 nM | B10 |
